Data taken from publication PMC12548662.

Target: Recombinant human α-centractin with an N-terminal His6 tag (human) (UniProt P61163)
Chain of UniProt P61163 (P61163 whole entry): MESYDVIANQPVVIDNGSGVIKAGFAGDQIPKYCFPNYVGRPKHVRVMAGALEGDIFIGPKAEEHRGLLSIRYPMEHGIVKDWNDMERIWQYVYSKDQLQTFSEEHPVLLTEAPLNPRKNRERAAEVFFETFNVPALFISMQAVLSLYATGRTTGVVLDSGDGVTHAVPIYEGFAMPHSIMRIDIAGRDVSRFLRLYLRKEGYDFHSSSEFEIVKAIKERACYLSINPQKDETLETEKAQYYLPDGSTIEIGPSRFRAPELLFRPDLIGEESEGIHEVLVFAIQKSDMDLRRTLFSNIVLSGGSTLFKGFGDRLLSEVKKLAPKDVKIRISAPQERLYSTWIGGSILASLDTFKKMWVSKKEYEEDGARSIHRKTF

B1: Recombinant His6-tagged human SETD3 (wild-type) (enzyme)
chain: MGKKSRVKTQKSGTGATATVSPKEILNLTSELLQKCSSPAPGPGKEWEEYVQIRTLVEKIRKKQKGLSVTFDGKREDYFPDLMKWASENGASVEGFEMVNFKEEGFGLRATRDIKAEELFLWVPRKLLMTVESAKNSVLGPLYSQDRILQAMGNIALAFHLLCERASPNSFWQPYIQTLPSEYDTPLYFEEDEVRYLQSTQAIHDVFSQYKNTARQYAYFYKVIQTHPHANKLPLKDSFTYEDYRWAVSSVMTRQNQIPTEDGSRVTLALIPLWDMCNHTNGLITTGYNLEDDRCECVALQDFRAGEQIYIFYGTRSNAEFVIHSGFFFDNNSHDRVKIKLGVSKSDRLYAMKAEVLARAGIPTSSVFALHFTEPPISAQLLAFLRVFCMTEEELKEHLLGDSAIDRIFTLGNSEFPVSWDNEVKLWTFLEDRASLLLKTYKTTIEEDKSVLKNHDLSVRAKMAIKLRLGEKEILEKAVKSAAVNREYYRQQMEEKAPLPKYEESNLGLLESSVGDSRLPLVLRNLEEEAGVQDALNIREAISKAKATENGLVNGENSIPNGTRSENESLNQESKRAVEDAKGSSSDSTAGVKE
Q: For B1, which KM of SETD3 for α-centractin (0.2–5 µM), radiochemical methyltransferase assay, 5 min at 37 °C with 1 µM [1H+3H]SAM is on record?
A: Its KM of SETD3 for α-centractin (0.2–5 µM), radiochemical methyltransferase assay, 5 min at 37 °C with 1 µM [1H+3H]SAM is 3.83 µM.
